Test results taken from patent US20060115428A1 (MorphoSys, published 2006).
Changes are numbered by the printed parent chain.

B1: MOR02619 (Fab, V domains shown)
VH: QVQLQESGPGLVKPGETLSLTCTVSGGSISSYYWSWIRQAPGKGLEWIGIGHWGSTQYNPSLKGRVTISVDTSKNQFSLKLSSVTAEDTAVYYCARFFDVWGQGTLVTVSS
VL: DIVLTQPPSVSGAPGQRVTISCSGSSSNIGSNTVRWYQQLPGTAPKLLIYSNNKRPSGVPDRFSGSKSGTSASLAITGLQSEDEADYYCQSWDGASTGVFGGGTKLTVLG
notes: HuCAL GOLD Fab, VH4/L1
B2: MOR03055 (Fab, V domains shown)
VH: B1 VH
VL: DIVLTQPPSVSGAPGQRVTISCSGSSSNIGSNTVRWYQQLPGTAPKLLIYSNNKRPSGVPDRFSGSKSGTSASLAITGLQSEDEADYYCQAWTRAHRYPVFGGGTKLTVLG
notes: Fab, L-CDR3 derivative of MOR02619
B3: MOR03069 (Fab, V domains shown)
VH: B1 VH
VL: DIVLTQPPSVSGAPGQRVTISCSGSSSNIGSNTVRWYQQLPGTAPKLLIYSNNKRPSGVPDRFSGSKSGTSASLAITGLQSEDEADYYCWTGMSYHFVFGGGTKLTVLG
notes: as for B2
B4: MOR03075 (Fab, V domains shown)
VH: B1 VH
VL: B1 VL with G94P, A95R, T97F, G98T
notes: as for B2
B5: MOR03071 (Fab, V domains shown)
VH: B1 VH
VL: B1 VL with Q90L, S91A, W92Y, D93I, G94Q, A95S, S96K, T97G, G98H
notes: as for B2
B6: MOR03066 (Fab, V domains shown)
VH: B1 VH
VL: B1 VL with Q90S, W92Y, G94T, A95Q, S96V, G98R
notes: as for B2
B7: MOR02613 (Fab, V domains shown)
VH: QVQLVESGGGLVQPGGSLRLSCAASGFTFSNYTMTWVRQAPGKGLEWVSFIIGSGSNTSYADSVKGRFTISRDNSKNTLYLQMNSLRAEDTAVYYCARYVNGFDIWGQGTLVTVSS
VL: DIALTQPASVSGSPGQSITISCTGTSSDVGVYYYVSWYQQHPGKAPKLMIYYDSKRPSGVSNRFSGSKSGNTASLTISGLQAEDEADYYCQTYAKKDYSLVFGGGTKLTVLG
notes: HuCAL GOLD Fab, VH3/L2
B8: MOR02611 (Fab, V domains shown)
VH: QVQLVQSGAEVKKPGASVKVSCKASGYTFSGSYMHWVRQAPGQGLEWMGIINPASGKTLYAQKFQGRVTMTRDTSISTAYMELSSLRSEDTAVYYCARGLYYRFASWGQGTLVTVSS
VL: DIALTQPASVSGSPGQSITISCTGTSSDIGGYHSVSWYQQHPGKAPKLMIYRSNRPSGVSNRFSGSKSGNTASLTISGLQAEDEADYYCAAATGGWVFGGGTNLTVLG
notes: HuCAL GOLD Fab, VH1B/L2
B9: MOR02610 (Fab, V domains shown)
VH: QVQLVQSGAEVKKPGASVKVSCKASGYTFTGFYINWVRQAPGQGLEWMGWINPYSGNTRYAQKFQGRVTMTRDTSISTAYMELSSLRSEDTAVYYCARSPVYYKYDYWGQGTLVTVSS
VL: DIVLTQPPSVSGAPGQRVTISCSGSSGNIGINFVNWYQQLPGTAPKLLIYKNNKRPSGVPDRFSGSKSGTSASLAITGLQSEDEADYYCQSYDKTSSTYVFGGGTKLTVLG
notes: HuCAL GOLD Fab, VH1B/L1
B10: MOR03243 (Fab, V domains shown)
VH: QVQLQESGPGLVKPGETLSLTCTVSGGSISSYYWSWIRQAPGKGLEWIGEIHRGGYTQYNPSLKSRVTISVDTSKNQFSLKLSSVTAADTAVYYCARFFDVWGQGTLVTVSS
VL: B2 VL
notes: Fab, H-CDR2 derivative of MOR03055
B11: MOR02618 (Fab, V domains shown)
VH: QVQLVESGGGLVQPGGSLRLSCAASGFTFNNYGMTWVRQAPGKGLEWVSSIYGYGSNTYYADSVKGRFTISRDNSKNTLYLQMNSLRAEDTAVYYCARNYWVFAYWGQGTLVTVSS
VL: DIELTQPPSVSVAPGQTARISCSGDNIPGKSVHWYQQKPGQAPVLVIYGKMNRPSGIPERFSGSNSGNTATLTISGTQAEDEADYYCQSYDNFNDSVVFGGGTKLTVLG
notes: HuCAL GOLD Fab, VH3/L3
B12: MOR02722 (Fab, V domains shown)
VH: QVQLVESGGGLVQPGGSLRLSCAASGFTFSSNAIHWVRQAPGKGLEWVSSISGSGSNTYYADSVKGRFTISRDNSKNTLYLQMNSLRAEDTAVYYCARFIASWGQGTLVTVSS
VL: DIVMTQSPLSLPVTPGEPASISCRSSQSLVHSNGYTDLNWYLQKPGQSPQLLIYLGSYRASGVPDRFSGSGSGTDFTLKISRVEAEDVGVYYCQQYSNFPFTFGQGTKVEIKR
notes: HuCAL GOLD Fab, VH3/K2
B13: MOR02614 (Fab, V domains shown)
VH: B12 VH with S30N, S31N, A33W, I34M, S50F, N57H, F99A, I100Y, A101D, S102V
VL: DIVLTQPPSVSGAPGQRVTISCSGSSSNIGFNYVNWYQQLPGTAPKLLIYGNSKRPSGVPDRFSGSKSGTSASLAITGLQSEDEADYYCAMFSPEGVFGGGTKLTVLG
notes: HuCAL GOLD Fab, VH3/L1
B14: MOR02622 (Fab, V domains shown)
VH: QVQLVESGGGLVQPGGSLRLSCAASGFTFSNYAMTWVRQAPGKGLEWVSGISYKSSSTYYADSVKGRFTISRDNSKNTLYLQMNSLRAEDTAVYYCARGLVTFDNWGQGTLVTVSS
VL: DIALTQPASVSGSPGQSITISCTGTSSDGGTYNFVSWYQQHPGKAPKLMIYRVSNRPSGVSNRFSGSKSGNTASLTISGLQAEDEADYYCSSWTHSFTDYVFGGGTKLTVLG
notes: HuCAL GOLD Fab, VH3/L2
B15: MOR02616 (Fab, V domains shown)
VH: QVQLVESGGGLVQPGGSLRLSCAASGFTFRNNAMHWVRQAPGKGLEWVSAISSSGSGTYYADSVKGRFTISRDNSKNTLYLQMNSLRAEDTAVYYCARVIVLFDYWGQGTLVTVSS
VL: DIVLTQSPATLSLSPGERATLSCRASQNVRSNLAWYQQKPGQAPRLLIYGASNRATGVPARFSGSGSGTDFTLTISSLEPEDFAVYYCLQKYSIPFTFGQGTKVEIKR
notes: HuCAL GOLD Fab, VH3/K3

Experiments:
[1] = biological target: T1, recombinant fibronectin domain ED-B (His)6 (human, UniProt P02751 1266-1356); test: SPR (BIAcore), ED-B immobilised on chip, Fab in flow
T1 construct: domain: ED-B; Produced by standard procedures; immobilised on ELISA plates or on the BIAcore chip; also called recombinant ED-B; human ED-B
Description: (§1) F1-Chips (Biacore, Sweden) were coated with about 200 RU of ED-B (30 μg/ml, 10 mmol of acetate buffer, pH 4.0) and reference flow cells with a corresponding amount of human serum albumin (20 μg/ml, 10 mmol of acetate buffer, pH 4.5) with use of standard EDC-NHS-amine-coupling chemistry. The antigen density was reduced to about 100 RU for the Fab characterization of the second maturation. The regeneration was carried out with 10 mmol of HCl. All kinetic measurements were carried out in PBS buffer (136 mmol of NaCl, 2.7 mmol of KCl, 10 mmol of Na₂HPO₄, 1.76 mmol of KH₂PO₄, pH 7.4) with a flow rate of 20 μl/minute with use of a Fab concentration range of 1.5-500 nmol. The injection period was 1 minute in each case. All sensograms were evaluated with use of BIA evaluation software 3.1.
The properties of twelve selected binding molecules was determined by BIAcore analysis (see Table 1). […] At least two independent measurements with Fab molecules from different batches were performed for protein expression and protein purification. The binding rate (Kₒₙ) and the dissociating-off rate (Koff) of the Fab molecule are indicated in separate columns.

[2] = biological target: T1, recombinant fibronectin domain ED-B …; test: as above; remark: listed apart in the source
Description: as §1

[3] = biological target: T2, recombinant fibronectin domain 7-8-9 (without ED-B) (UniProt P02751-1 1173-1446, limits assumed); test: specificity ELISA on immobilised recombinant domain 7-8-9
T2 construct: domain: fibronectin domains 7-8-9 (without ED-B)

[4] = biological target: T3, recombinant fibronectin domain 6 (UniProt P02751 1086-1172, limits assumed); test: specificity ELISA on immobilised recombinant fibronectin domain 6
T3 construct: domain: fibronectin domain 6; also called 6FN; 6-FN

[5] = biological target: T1, recombinant fibronectin domain ED-B …; test: SPR (BIAcore); ratio to parent clone MOR02619
Description: as §1

[6] = biological target: T1, recombinant fibronectin domain ED-B …; test: SPR (BIAcore), ED-B immobilised on chip (about 100 RU), Fab in flow
Description: as §1

| Binder | Kd [1] | koff [1] | kon [1] | Kd [2] | koff [2] | kon [2] | binding result [3] | binding result [4] | x-Fold Improvement Relative to the Parent Clone, KD [5] | x-Fold Improvement Relative to the Parent Clone, Koff [5] | x-Fold Improvement Relative to the Parent Clone, Kon [5] | Kd [6] | koff [6] | kon [6] |
| --- | --- | --- | --- | --- | --- | --- | --- | --- | --- | --- | --- | --- | --- | --- |
| B1 | 15.4 nM | 0.012 s⁻¹ | 780000 M⁻¹ s⁻¹ | 15.4 nM | 0.012 s⁻¹ | 780000 M⁻¹ s⁻¹ | no binding | no binding |  |  |  |  |  |  |
| B2 |  |  |  | 3 nM | 0.0051 s⁻¹ | 1.8e+06 M⁻¹ s⁻¹ |  |  | 5.4 fold | 2.6 fold | 2.2 fold |  |  |  |
| B3 |  |  |  | 3.3 nM | 0.0041 s⁻¹ | 1.2e+06 M⁻¹ s⁻¹ |  |  | 4.8 fold | 3.2 fold | 1.5 fold |  |  |  |
| B4 |  |  |  | 2.4 nM | 0.0026 s⁻¹ | 1.1e+06 M⁻¹ s⁻¹ |  |  | 6.8 fold | 5 fold | 1.4 fold |  |  |  |
| B5 |  |  |  | 3.1 nM | 0.0057 s⁻¹ | 1.9e+06 M⁻¹ s⁻¹ |  |  | 5.1 fold | 2.3 fold | 2.3 fold |  |  |  |
| B6 |  |  |  | 4.2 nM | 0.0047 s⁻¹ | 1.1e+06 M⁻¹ s⁻¹ |  |  | 3.8 fold | 2.8 fold | 1.4 fold |  |  |  |
| B7 | 164 nM | 0.13 s⁻¹ | 780000 M⁻¹ s⁻¹ |  |  |  |  |  |  |  |  |  |  |  |
| B8 | 332 nM | 0.051 s⁻¹ | 150000 M⁻¹ s⁻¹ |  |  |  |  |  |  |  |  |  |  |  |
| B9 | 75 nM | 0.091 s⁻¹ | 1.3e+06 M⁻¹ s⁻¹ |  |  |  | no binding | no binding |  |  |  |  |  |  |
| B10 |  |  |  |  |  |  |  |  |  |  |  | 0.7 nM | 0.0018 s⁻¹ | 2.9e+06 M⁻¹ s⁻¹ |
| B11 | 477 nM | 0.2 s⁻¹ | 430000 M⁻¹ s⁻¹ |  |  |  | no binding | no binding |  |  |  |  |  |  |
| B12 | 94 nM | 0.014 s⁻¹ | 150000 M⁻¹ s⁻¹ |  |  |  | no binding | no binding |  |  |  |  |  |  |
| B13 | 160 nM | 0.042 s⁻¹ | 280000 M⁻¹ s⁻¹ |  |  |  | no binding | no binding |  |  |  |  |  |  |
| B14 | 21.3 nM | 0.0051 s⁻¹ | 240000 M⁻¹ s⁻¹ |  |  |  | no binding | no binding |  |  |  |  |  |  |
| B15 | 59 nM | 0.028 s⁻¹ | 540000 M⁻¹ s⁻¹ |  |  |  |  |  |  |  |  |  |  |  |
